Biological target: HydABCD unit of the synthetic Caldanaerobacter subterranus NADH-dependent [FeFe]-hydrogenase complex (with HydC^His) (Caldanaerobacter subterranus subsp. tengcongensis)
Test: SEC-MALS; IMAC-purified enzyme on a MAbPac SEC-1 column, 50 mM Tris.HCl pH 7.5, 150 mM NaCl, 0.5 ml/min; peak fraction analysed by SDS-PAGE

Substance: HydABCD unit of the synthetic Caldanaerobacter subterranus NADH-dependent [FeFe]-hydrogenase complex (with HydC^His)
- stoichiometry N: 2

Reference: article PMC4694547
